Data published in publication PMC4403821.

Experiments:
[1] = target: ORF74-ST/A (Kaposi's sarcoma-associated herpesvirus (KSHV)) (UniProt Q98146)
^125I-CXCL8 = test: radioligand binding (125I-CXCL8 homologous competition) on intact HEK293T cells; conditions: point at the lowest unlabeled CXCL8 concentration, log [CXCL8] = -11 M; parent: est. 100; read off a plot
[2] = target: ORF74-ST/A (Kaposi's sarcoma-associated herpesvirus (KSHV)) (UniProt Q98146); test: radioligand binding; whole transfected HEK293T cells, 100 pM ^125I-CXCL10 with increasing unlabeled CXCL10, 3h at 4°C, 50 mM HEPES pH 7.4, 1 mM CaCl2, 5 mM MgCl2, 0.5% BSA; washes with 0.5 M NaCl; Ki from IC50 by Cheng and Prusoff

Substance: CXCL8 (ligand)
- PLC activation (InsP accumulation) in HEK293T, pEC50 [1]: > 7

Substance: WT-ORF74 (from UniProt Q98146) S315A; S319A; S331A; S335A; S338A; T341A; T342A
- percent of parent (% of specific binding of WT-ORF74) (^125I-CXCL8): 3

Substance: CXCL10 (from UniProt P02778 22-98) (ligand)
- pKi [2]: 8.4
- inhibition of constitutive PLC activation (InsP accumulation) in HEK293T, pEC50 [1]: 8
